Measured values published in IntAct's records for PubMed 21620138.

Molecular target: hif1a_human HIF1A (UniProt Q16665)
Sequence (Q16665 whole entry, looked up): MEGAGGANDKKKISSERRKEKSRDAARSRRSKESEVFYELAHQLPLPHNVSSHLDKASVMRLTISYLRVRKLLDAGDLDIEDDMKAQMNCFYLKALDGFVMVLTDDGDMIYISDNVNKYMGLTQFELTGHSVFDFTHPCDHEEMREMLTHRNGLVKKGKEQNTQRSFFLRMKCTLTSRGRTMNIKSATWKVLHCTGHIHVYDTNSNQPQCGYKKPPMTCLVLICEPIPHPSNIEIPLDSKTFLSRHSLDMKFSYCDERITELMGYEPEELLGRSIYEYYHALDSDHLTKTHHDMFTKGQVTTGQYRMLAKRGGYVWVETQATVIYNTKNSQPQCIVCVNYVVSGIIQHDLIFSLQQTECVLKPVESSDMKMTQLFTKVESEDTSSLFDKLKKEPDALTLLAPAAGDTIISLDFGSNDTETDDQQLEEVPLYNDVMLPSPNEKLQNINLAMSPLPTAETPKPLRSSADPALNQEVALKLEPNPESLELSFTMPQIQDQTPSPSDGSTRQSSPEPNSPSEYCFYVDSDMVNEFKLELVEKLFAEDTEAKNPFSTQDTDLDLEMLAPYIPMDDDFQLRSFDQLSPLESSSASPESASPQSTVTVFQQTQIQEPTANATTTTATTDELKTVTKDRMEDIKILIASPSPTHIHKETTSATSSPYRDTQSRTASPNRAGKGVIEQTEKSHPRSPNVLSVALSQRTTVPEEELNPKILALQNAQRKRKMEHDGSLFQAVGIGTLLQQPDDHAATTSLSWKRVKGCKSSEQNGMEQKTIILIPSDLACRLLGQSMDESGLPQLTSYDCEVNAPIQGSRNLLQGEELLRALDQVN

Pyruvate kinase PKM (Homo sapiens), P14618-1 P403A;P408A, sequence (P14618 whole entry P403A/P408A): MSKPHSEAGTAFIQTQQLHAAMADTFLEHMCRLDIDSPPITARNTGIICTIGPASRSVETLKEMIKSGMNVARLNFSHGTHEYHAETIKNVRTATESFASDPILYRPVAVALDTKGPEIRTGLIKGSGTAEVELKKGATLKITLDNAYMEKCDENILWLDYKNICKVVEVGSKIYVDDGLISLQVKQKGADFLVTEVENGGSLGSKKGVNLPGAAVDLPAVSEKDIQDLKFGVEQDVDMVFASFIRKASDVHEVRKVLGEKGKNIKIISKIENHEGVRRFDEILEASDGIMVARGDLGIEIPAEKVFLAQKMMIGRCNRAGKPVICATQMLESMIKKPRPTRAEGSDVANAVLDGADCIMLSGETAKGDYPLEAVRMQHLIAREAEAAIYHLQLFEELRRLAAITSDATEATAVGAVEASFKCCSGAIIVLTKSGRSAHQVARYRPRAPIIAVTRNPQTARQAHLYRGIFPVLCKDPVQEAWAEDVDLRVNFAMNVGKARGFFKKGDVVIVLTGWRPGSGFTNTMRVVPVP

In the case of “Pyruvate kinase PKM (Homo sapiens), P14618-1 P403A;P408A”, the “effect of a mutation on the interaction” value is reported as “decreasing interaction strength”.
